In the supplement of paper PMC3353916:
± gives the standard deviation of the averaged measurements.

Test system: Sindbis virus TE/5'2J-GFP
Test: percent infected (GFP+ in RFP+ ISG-expressing cells); higher = more infection (less antiviral activity)
Description: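 Confirmatory testing of 87 ISGs. Triplicate wells of BHK/HA-Zeo (control) or BHK/NZAP-Zeo (ZAP) cells were transduced with lentiviruses co-expressing a human ISG plus TagRFP, then infected 48 h later with SINV TE/5'2J-GFP (moi 5). The % GFP+ cells among RFP+ cells was measured by flow cytometry at 8 h post infection. Fluc lentivirus served as control. Three independent experiments.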

[1] = experiment: confirmatory screen 1, BHK/HA-Zeo (control)
[2] = experiment: confirmatory screen 1, BHK/NZAP-Zeo (ZAP)
[3] = experiment: confirmatory screen 2, BHK/HA-Zeo (control)
[4] = experiment: confirmatory screen 2, BHK/NZAP-Zeo (ZAP)
[5] = experiment: confirmatory screen 3, BHK/HA-Zeo (control)
[6] = experiment: confirmatory screen 3, BHK/NZAP-Zeo (ZAP)
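Note: Interferon-defective BHK-21 derivatives, ZAP line overexpressing the rat ZAP N-terminal zinc finger domain fused to Zeocin resistance, GFP scored within live singlet TagRFP+ cells.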

MNTIVFNKLSGAVLFEDGGASERERGGRPYSGVLDSPHARPEVGIPDGPPLKDNLGLRHRRTGARQNGGKVRHKRQALQDMARPLKQWLYKHRDNPYPTKTEKILLALGSQMTLVQVSNWFANARRRLKNTVRQPDLSWALRIKLYNKYVQGNAERLSVSSDDSCSEDGENPPRTHMNEGGYNTPVHHPVIKSENSVIKAGVRPESRASEDYVAPPKYKSSLLNRYLNDSLRHVMATNTTMMGKTRQRNHSGSFSSNEFEEELVSPSSSETEGNFVYRTDTLENGSNKGESAANRKGPSKDDTYWKEINAAMALTNLAQGKDKLQGTTSCIIQKSSHIAEVKTVKVPLVQQF [MKX]
percent infected [1]: 95 ± 2.1% | percent infected [2]: 82.42 ± 0.67% | percent infected [3]: 95.17 ± 0.2% | percent infected [4]: 92.86 ± 0.56% | percent infected [5]: 79 ± 1.7% | percent infected [6]: 86.15 ± 0.099%

MDSRVSELFGGCCRPGGGPAVGGTLKARGAGSSSGCGGPKGKKKNGRNRGGKANNPPYLPPEAEDGNIEYKLKLVNPSQYRFEHLVTQMKWRLQEGRGEAVYQIGVEDNGLLVGLAEEEMRASLKTLHRMAEKVGADITVLREREVDYDSDMPRKITEVLVRKVPDNQQFLDLRVAVLGNVDSGKSTLLGVLTQGELDNGRGRARLNLFRHLHEIQSGRTSSISFEILGFNSKGEVVNYSDSRTAEEICESSSKMITFIDLAGHHKYLHTTIFGLTSYCPDCALLLVSANTGIAGTTREHLGLALALKVPFFIVVSKIDLCAKTTVERTVRQLERVLKQPGCHKVPMLVTSEDDAVTAAQQFAQSPNVTPIFTLSSVSGESLDLLKVFLNILPPLTNSKEQEELMQQLTEFQVDEIYTVPEVGTVVGGTLSSGICREGDQLVVGPTDDGCFLELRVCSIQRNRSACRVLRAGQAATLALGDFDRALLRKGMVMVSPEMNPTICSVFEAEIVLLFHATTFRRGFQVTVHVGNVRQTAVVEKIHAKDKLRTGEKAVVRFRFLKHPEYLKVGAKLLFREGVTKGIGHVTDVQAITAGEAQANMGF [GTPBP2]
percent infected [1]: 91.5 ± 3.9% | percent infected [2]: 64.4 ± 1.3% | percent infected [3]: 94.39 ± 0.34% | percent infected [4]: 94.94 ± 0.23% | percent infected [5]: 94 ± 1.1% | percent infected [6]: 93.43 ± 0.41%

ISG20
percent infected [1]: 95.82 ± 0.88% | percent infected [2]: 73.1 ± 2.4% | percent infected [3]: 96.88 ± 0.17% | percent infected [4]: 95.24 ± 0.15% | percent infected [5]: 87 ± 2.5% | percent infected [6]: 90.59 ± 0.73%

MPRQLSAAAALFASLAVILHDGSQMRAKAFPETRDYSQPTAAATVQDIKKPVQQPAKQAPHQTLAARFMDGHITFQTAATVKIPTTTPATTKNTATTSPITYTLVTTQATPNNSHTAPPVTEVTVGPSLAPYSLPPTITPPAHTTGTSSSTVSHTTGNTTQPSNQTTLPATLSIALHKSTTGQKPVQPTHAPGTTAAAHNTTRTAAPASTVPGPTLAPQPSSVKTGIYQVLNGSRLCIKAEMGIQLIVQDKESVFSPRRYFNIDPNATQASGNCGTRKSNLLLNFQGGFVNLTFTKDEESYYISEVGAYLTVSDPETIYQGIKHAVVMFQTAVGHSFKCVSEQSLQLSAHLQVKTTDVQLQAFDFEDDHFGNVDECSSDYTIVLPVIGAIVVGLCLMGMGVYKIRLRCQSSGYQRI [LAMP3]
percent infected [1]: 95.8 ± 1.7% | percent infected [2]: 52.1 ± 5.6% | percent infected [3]: 97.55 ± 0.14% | percent infected [4]: 96.16 ± 0.23% | percent infected [5]: 86.4 ± 2.6% | percent infected [6]: 89.93 ± 0.19%

PDK1
percent infected [1]: 94.39 ± 0.65% | percent infected [2]: 65.7 ± 2.9% | percent infected [3]: 95.24 ± 0.62% | percent infected [4]: 95.39 ± 0.19% | percent infected [5]: 93.83 ± 0.42% | percent infected [6]: 93.94 ± 0.33%

MTTEQRRSLQAFQDYIRKTLDPTYILSYMAPWFREEEVQYIQAEKNNKGPMEAATLFLKFLLELQEEGWFRGFLDALDHAGYSGLYEAIESWDFKKIEKLEEYRLLLKRLQPEFKTRIIPTDIISDLSECLINQECEEILQICSTKGMMAGAEKLVECLLRSDKENWPKTLKLALEKERNKFSELWIVEKGIKDVETEDLEDKMETSDIQIFYQEDPECQNLSENSCPPSEVSDTNLYSPFKPRNYQLELALPAMKGKNTIICAPTGCGKTFVSLLICEHHLKKFPQGQKGKVVFFANQIPVYEQQKSVFSKYFERHGYRVTGISGATAENVPVEQIVENNDIIILTPQILVNNLKKGTIPSLSIFTLMIFDECHNTSKQHPYNMIMFNYLDQKLGGSSGPLPQVIGLTASVGVGDAKNTDEALDYICKLCASLDASVIATVKHNLEELEQVVYKPQKFFRKVESRISDKFKYIIAQLMRDTESLAKRICKDLENLSQIQNREFGTQKYEQWIVTVQKACMVFQMPDKDEESRICKALFLYTSHLRKYNDALIISEHARMKDALDYLKDFFSNVRAAGFDEIEQDLTQRFEEKLQELESVSRDPSNENPKLEDLCFILQEEYHLNPETITILFVKTRALVDALKNWIEGNPKLSFLKPGILTGRGKTNQNTGMTLPAQKCILDAFKASGDHNILIATSVADEGIDIAQCNLVILYEYVGNVIKMIQTRGRGRARGSKCFLLTSNAGVIEKEQINMYKEKMMNDSILRLQTWDEAVFREKILHIQTHEKFIRDSQEKPKPVPDKENKKLLCRKCKALACYTADVRVIEECHYTVLGDAFKECFVSRPHPKPKQFSSFEKRAKIFCARQNCSHDWGIHVKYKTFEIPVIKIESFVVEDIATGVQTLYSKWKDFHFEKIPFDPAEMSK [DDX58]
percent infected [1]: 38 ± 4.1% | percent infected [2]: 4.81 ± 4.5% | percent infected [3]: 96.53 ± 0.19% | percent infected [4]: 89.2 ± 2.2% | percent infected [5]: 75.6 ± 6% | percent infected [6]: 23.2 ± 3.1%

MAQASPPRPERVLGASSPEARPAQEALLLPTGVFQVAEKMEKRTCALCPKDVEYNVLYFAQSENIAAHENCLLYSSGLVECEDQDPLNPDRSFDVESVKKEIQRGRKLKCKFCHKRGATVGCDLKNCNKNYHFFCAKKDDAVPQSDGVRGIYKLLCQQHAQFPIIAQSAKFSGVKRKRGRKKPLSGNHVQPPETMKCNTFIRQVKEEHGRHTDATVKVPFLKKCKEAGLLNYLLEEILDKVHSIPEKLMDETTSESDYEEIGSALFDCRLFEDTFVNFQAAIEKKIHASQQRWQQLKEEIELLQDLKQTLCSFQENRDLMSSSTSISSLSY [PHF11]
percent infected [1]: 76.3 ± 5.1% | percent infected [2]: 50.3 ± 2.9% | percent infected [3]: 91.99 ± 0.75% | percent infected [4]: 93.69 ± 0.2% | percent infected [5]: 89.11 ± 0.58% | percent infected [6]: 89.89 ± 0.28%
